Measurements as given in the supplement of paper PMC6379048.

Experiments:
Experiment in all cases: EC50 of free RNA motif oligo competing protein binding to immobilised probe
[1] = target: SRSF10 (UniProt O75494)
Summary of the method: (§1)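 To obtain EC50, data were fitted with a four-parameter log-logistic model; Kd was then EC50 multiplied by a protein-dependent depletion factor. Beforehand, free RNA oligos (0 nM to 30 μM) were pre-incubated with HEK293-FT lysate (2.5 mg protein/well) for 1 h at 4°C. The lysate then spent 30 min at 4°C with the same 5′-amino-C6 oligos coupled to NHS-Sepharose beads, and bound proteins were quantified by label-free LC-MS/MS, normalised to the control.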

[2] = target: CSNK2B (UniProt P67870)
Summary of the method: as §1

[3] = target: RPS17 (UniProt P08708)
Summary of the method: as §1

[4] = target: T1, PUF60 (UniProt Q9UHX1)
T1 sequence: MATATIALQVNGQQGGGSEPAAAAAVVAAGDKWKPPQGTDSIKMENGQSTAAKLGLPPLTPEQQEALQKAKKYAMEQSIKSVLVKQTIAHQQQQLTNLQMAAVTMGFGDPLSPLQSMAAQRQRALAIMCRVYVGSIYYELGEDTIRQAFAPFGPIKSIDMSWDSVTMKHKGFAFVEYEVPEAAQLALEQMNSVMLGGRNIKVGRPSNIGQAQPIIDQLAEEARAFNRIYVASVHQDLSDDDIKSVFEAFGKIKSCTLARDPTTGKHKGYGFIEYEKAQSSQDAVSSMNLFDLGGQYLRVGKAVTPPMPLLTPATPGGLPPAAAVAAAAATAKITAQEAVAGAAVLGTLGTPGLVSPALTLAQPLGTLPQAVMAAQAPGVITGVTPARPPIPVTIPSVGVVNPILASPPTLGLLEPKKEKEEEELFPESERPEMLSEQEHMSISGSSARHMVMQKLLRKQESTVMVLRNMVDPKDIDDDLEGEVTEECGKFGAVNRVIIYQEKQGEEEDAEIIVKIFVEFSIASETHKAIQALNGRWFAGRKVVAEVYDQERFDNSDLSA
Summary of the method: as §1

[5] = target: RPS3 (UniProt P23396)
Summary of the method: as §1

[6] = target: MRPL21 (UniProt Q7Z2W9)
Summary of the method: as §1

[7] = target: RPS28 (UniProt P62857)
Summary of the method: as §1

[8] = target: HNRNPK (UniProt P61978)
Summary of the method: as §1

[9] = target: MRPS9 (UniProt P82933)
Summary of the method: as §1

[10] = target: MRPS28 (UniProt Q9Y2Q9)
Summary of the method: as §1

[11] = target: MRPS34 (UniProt P82930)
Summary of the method: as §1

[12] = target: ZNFX1 (UniProt Q9P2E3)
Summary of the method: as §1

[13] = target: T2, LSM8 (UniProt O95777)
T2 sequence: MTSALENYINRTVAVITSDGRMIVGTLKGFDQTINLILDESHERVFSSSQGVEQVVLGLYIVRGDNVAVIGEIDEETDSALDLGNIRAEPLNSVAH
Summary of the method: as §1

[14] = target: MRPS7 (UniProt Q9Y2R9)
Summary of the method: as §1

Sequence of CSNK2B (P67870 whole entry): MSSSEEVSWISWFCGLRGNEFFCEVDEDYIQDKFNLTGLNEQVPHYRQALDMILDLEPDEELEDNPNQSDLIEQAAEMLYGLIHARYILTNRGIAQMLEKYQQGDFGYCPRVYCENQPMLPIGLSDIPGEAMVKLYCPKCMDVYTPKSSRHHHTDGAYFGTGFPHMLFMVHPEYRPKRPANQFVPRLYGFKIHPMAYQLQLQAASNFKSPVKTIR
Sequence of SRSF10 (O75494 whole entry): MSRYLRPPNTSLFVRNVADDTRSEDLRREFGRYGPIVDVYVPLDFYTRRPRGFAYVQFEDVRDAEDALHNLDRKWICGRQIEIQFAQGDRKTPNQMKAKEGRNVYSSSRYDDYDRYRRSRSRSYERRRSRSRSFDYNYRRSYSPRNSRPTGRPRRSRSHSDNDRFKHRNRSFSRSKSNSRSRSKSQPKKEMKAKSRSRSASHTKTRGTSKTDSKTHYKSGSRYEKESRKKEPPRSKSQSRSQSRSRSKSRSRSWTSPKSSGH
Sequence of ZNFX1 (Q9P2E3 whole entry): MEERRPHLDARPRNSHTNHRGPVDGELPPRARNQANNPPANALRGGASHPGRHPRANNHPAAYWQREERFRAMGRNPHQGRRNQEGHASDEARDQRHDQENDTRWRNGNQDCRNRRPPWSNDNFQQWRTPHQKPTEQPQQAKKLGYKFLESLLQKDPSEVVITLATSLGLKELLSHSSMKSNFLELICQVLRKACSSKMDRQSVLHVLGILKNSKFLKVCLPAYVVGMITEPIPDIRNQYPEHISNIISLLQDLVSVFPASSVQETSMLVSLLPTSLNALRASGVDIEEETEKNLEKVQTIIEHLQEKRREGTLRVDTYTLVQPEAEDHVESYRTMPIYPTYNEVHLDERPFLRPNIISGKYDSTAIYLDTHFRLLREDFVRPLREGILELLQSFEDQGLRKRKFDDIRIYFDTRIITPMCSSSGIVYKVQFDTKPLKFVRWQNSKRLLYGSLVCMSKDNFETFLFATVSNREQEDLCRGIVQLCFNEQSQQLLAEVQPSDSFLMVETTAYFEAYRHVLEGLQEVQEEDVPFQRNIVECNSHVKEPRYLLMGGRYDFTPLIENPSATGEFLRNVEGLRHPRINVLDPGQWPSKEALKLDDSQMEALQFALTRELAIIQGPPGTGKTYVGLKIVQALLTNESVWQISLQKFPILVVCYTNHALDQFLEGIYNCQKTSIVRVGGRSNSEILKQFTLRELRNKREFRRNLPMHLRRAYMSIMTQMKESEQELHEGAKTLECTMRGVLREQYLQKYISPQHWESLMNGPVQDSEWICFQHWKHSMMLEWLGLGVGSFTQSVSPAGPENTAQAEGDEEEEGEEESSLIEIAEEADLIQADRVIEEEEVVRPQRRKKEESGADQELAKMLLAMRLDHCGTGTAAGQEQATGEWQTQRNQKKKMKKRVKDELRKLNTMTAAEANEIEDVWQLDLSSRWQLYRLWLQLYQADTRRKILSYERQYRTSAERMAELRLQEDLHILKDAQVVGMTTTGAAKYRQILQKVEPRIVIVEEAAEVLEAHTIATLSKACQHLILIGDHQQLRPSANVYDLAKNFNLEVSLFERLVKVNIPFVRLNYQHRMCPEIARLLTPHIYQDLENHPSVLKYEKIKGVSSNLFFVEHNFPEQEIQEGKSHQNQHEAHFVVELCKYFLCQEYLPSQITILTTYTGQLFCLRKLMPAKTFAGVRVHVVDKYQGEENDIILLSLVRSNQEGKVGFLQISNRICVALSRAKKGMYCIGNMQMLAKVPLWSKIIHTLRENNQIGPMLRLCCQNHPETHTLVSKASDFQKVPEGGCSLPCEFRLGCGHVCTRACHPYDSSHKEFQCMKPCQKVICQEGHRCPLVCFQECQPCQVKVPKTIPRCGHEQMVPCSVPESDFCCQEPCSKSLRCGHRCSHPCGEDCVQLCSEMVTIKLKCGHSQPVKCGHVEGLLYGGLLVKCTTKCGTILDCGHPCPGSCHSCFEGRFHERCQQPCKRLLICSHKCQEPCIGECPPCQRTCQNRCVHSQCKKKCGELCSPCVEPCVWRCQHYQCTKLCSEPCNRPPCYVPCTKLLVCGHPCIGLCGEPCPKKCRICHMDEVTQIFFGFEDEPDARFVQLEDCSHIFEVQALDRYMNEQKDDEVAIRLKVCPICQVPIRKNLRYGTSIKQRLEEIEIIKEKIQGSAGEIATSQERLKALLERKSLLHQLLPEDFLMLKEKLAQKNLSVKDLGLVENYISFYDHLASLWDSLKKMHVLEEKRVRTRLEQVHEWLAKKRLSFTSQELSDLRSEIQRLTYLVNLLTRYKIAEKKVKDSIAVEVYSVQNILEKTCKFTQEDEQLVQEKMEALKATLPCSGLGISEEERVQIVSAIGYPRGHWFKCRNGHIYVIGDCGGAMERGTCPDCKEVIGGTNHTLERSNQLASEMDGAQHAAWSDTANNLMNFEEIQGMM

Sequence: AAUAAA
- EC50 [1]: 1150 nM
- EC50 [2]: 3.56 µM
- EC50 [3]: 128 nM
- EC50 [4]: 899 nM

Sequence: CUGUCCU
- EC50 [5]: 307 nM
- EC50 [6]: 151 nM
- EC50 [7]: 212 nM
- EC50 [8]: 3.04 µM

Sequence: UAUUUAU
- EC50 [9]: 29.4 nM
- EC50 [10]: 56.1 nM
- EC50 [11]: 59.7 nM
- EC50 [12]: 436 nM
- EC50 [13]: 9.58 µM
- EC50 [14]: 84.2 nM
